Data from patent US20160244529A1 (ROTTAPHARM BIOTECH S R L, published 2016).

T1: human Ig1,2 TrkA (recombinant D4-D5 domain of human TrkA receptor) (human, UniProt P04629 191-392)
T1 construct: also called hTrkA Ig1,2; TrkA Ig1,2
T1 chain: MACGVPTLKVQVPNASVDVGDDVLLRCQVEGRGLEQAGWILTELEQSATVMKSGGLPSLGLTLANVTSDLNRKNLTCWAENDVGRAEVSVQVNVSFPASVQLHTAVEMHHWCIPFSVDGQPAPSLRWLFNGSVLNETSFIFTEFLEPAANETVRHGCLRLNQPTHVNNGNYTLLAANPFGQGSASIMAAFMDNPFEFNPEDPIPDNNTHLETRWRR

T2: human p75 immunoadhesin (human; Camelus dromedarius, UniProt P08138 29-250)
T2 construct: extracellular domain; also called hp75-Fc; p75NTR immunoadhesin; not shown: Fc portion (immunoglobulin heavy chain constant region) of IgG2a camel antibody (Camelus dromedarius)
T2 sequence (looked up): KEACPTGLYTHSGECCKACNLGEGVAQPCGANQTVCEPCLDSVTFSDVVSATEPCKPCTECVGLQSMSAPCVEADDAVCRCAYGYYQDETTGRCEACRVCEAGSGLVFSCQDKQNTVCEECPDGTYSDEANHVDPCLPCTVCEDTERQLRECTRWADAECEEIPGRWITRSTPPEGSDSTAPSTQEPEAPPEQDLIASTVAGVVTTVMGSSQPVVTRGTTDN


Legend:
[1] = target: T3, mouse Ig1,2 TrkA (recombinant D4-D5 domain of murine TrkA receptor) (mouse, UniProt Q3UFB7 193-413); test: SPR (Biacore X-100); scFv immobilised on CM5 chip, mouse Ig1,2 TrkA injected
T3 construct: also called mTrkA Ig1,2
T3 sequence (Q3UFB7 other isoform, or with tags, fused parts or gaps limits assumed): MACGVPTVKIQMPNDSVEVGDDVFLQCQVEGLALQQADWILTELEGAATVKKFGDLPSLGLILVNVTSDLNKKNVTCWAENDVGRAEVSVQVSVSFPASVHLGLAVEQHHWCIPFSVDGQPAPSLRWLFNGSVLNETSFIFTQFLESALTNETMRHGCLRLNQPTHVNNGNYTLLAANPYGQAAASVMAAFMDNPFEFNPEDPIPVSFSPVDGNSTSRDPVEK
Protocol: (§1) The antibodies were also shown to be specific for hTrkA and mTrkA by relative binding to the BIACore sensor chips coated with the appropriate antigen. Antibodies were immobilized by ammine coupling to Biosensor CM5 sensorchips (Pharmacia) according to the manufacturers instructions. Anti-TrkA scFv proteins were diluted at 20-50 μg/ml in suitable pre-concentration buffer (at least 2 pH unit below the pI of the scFv in order to get a net positive charge), chosen among the Acetate buffers. The scFvs were immobilized at 100 RU to get a low density immobilization. As binder, the recombinant protein consisting of D4-D5 domain of human and murine TrkA receptor (hTrkA Ig1,2 and mTrkA Ig1,2 respectively) were injected over the immobilized scFv with a contact time of 60 seconds and with a dissociation time of 400 seconds and the assay workflow placed 5 serial dilutions of the TrkA Ig1,2 (starting in the micromolar range and diluting 1:2 each time). The regeneration condition were mild (contact time 30 seconds, 10 mM Glycine pH2). On the basis of the resulting sensorgrams, the concentrations of TrkA Ig1,2 were adjusted to optimize, contact time, dissociation time and regeneration. Data were analysed by Bioevaluation Software (see results on Table II and Table III). The quality of the data fitting were checked by the value of Chi² and of the U-value.
(§2) We have carried out surface plasmon resonance (SPR) analyses to determine the binding kinetics of a panel of isolated anti-TrkA scFvs (SEQ ID NOs: 1, 2, 3, 4, 5, 6, 7, 8, 9, 10, 11, 12, 13, 14, 15 and 16). The scFvs were immobilized on a CM5 chip followed by injections at various concentration of human and murine Ig 1,2 TrkA (SEQ ID NO: 78) and mouse Ig1,2 TrkA (SEQ ID NO: 79).

[2] = target: T1, human Ig1,2 TrkA (recombinant D4-D5 …); test: SPR (Biacore X-100); scFv immobilised on CM5 chip, human Ig1,2 TrkA injected
Protocol: as §1, §2

[3] = target: T4, human TrkA receptor (native, on TF-1 cells) (human, UniProt P04629 33-796); test: chip-based flow cytometry (Agilent Bioanalyzer 2100) on TF-1 cells expressing human TrkA; scFv at 5 µg/ml per paragraph 159
T4 construct: also called TF1 expressing TrkA receptor; TF-1 cell line expressing human TrkA receptor
T4 sequence (P04629 33-796 limits assumed): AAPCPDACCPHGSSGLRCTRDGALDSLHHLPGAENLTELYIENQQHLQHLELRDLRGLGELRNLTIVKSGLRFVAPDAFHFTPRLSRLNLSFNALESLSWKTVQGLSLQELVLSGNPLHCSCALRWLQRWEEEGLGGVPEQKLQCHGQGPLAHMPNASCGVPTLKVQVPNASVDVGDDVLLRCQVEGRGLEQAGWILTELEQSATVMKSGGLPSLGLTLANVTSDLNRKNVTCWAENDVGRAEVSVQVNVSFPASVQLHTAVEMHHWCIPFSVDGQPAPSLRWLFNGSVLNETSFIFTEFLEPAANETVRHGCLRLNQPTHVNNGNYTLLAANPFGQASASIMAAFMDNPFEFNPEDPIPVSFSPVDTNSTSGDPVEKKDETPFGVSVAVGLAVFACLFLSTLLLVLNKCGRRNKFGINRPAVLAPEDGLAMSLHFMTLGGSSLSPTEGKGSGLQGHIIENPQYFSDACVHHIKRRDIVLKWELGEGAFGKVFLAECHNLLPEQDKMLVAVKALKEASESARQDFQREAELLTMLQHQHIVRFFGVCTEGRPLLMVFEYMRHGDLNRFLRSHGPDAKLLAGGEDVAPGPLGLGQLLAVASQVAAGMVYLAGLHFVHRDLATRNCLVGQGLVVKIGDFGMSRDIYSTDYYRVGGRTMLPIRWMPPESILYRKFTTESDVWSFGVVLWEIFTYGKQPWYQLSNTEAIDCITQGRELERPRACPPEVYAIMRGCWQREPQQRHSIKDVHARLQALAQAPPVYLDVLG
Protocol: FIG. 5. FACS analysis performed with Bioanalyzer 2100. A cell fluid chip-based fluorescent cytometric assay that runs on Bioanalyzer 2100 (Agilent) for fast characterization of small population cell phenotypes was assessed. The assay determines the expression of specific cell surface markers. In this experiment, the specificity of scFvs on TF-1 cell line expressing human TrkA receptor was assessed. Six samples can be analyzed on each chip in one automated process. Results were in good agreement with conventional flow cytometry in quantisation.
10⁶ cells/sample=tot: 6×10⁶ cells are first centrifuged at 350 g for 5 min at room temperature (RT) and wash with 12 ml of Staining Buffer (SB) at RT. The pellet was resuspended in 3 ml of SB at 4° C. and aliquot 0.5 ml of suspension in 1.5 ml conical tubes. Cells were centrifuged again at 350 g for 5 min at 4° C. and the pellet was resuspended in 1 ml HBSS at 4° C. 125 μl 16% p-formaldehyde (final conc 1.7%) was added into each tube and then the sample was incubated for 10 min at 4° C. on tube rotator. After 10 minutes, 75 μl of 10% detergent solution-Tween 20 (final conc 0.6%) was added and the samples were then incubated for 10 min at 4° C. on tube rotator. Samples were then washed once with FACS Buffer (0.8 ml/sample) at 4° C. and then centrifuged at 350 g for 5 min at 4° C. Cells were resuspended with 80 μl/sample of FACS Buffer. 20 μl of a 5× primary antibody solution were added (final concentration of scFvs is 5 μg/ml). After incubation for 1 hour at 4° C. on tube rotator samples were washed with FACS Buffer (0.5 ml/sample) at 4° C. and then centrifuged 5 min at 350 g at 4° C. Cells were resuspended with 80 μl/sample of FACS Buffer. 20 μl of a 5× secondary antibody solution were added. Final concentration of mouse anti-V5 antibody is 0.20 μg/ml. The samples were incubated for 1 hour at 4° C. on tube rotator. After incubation for 1 hour at 4° C. on tube rotator samples were washed with FACS Buffer (0.5 ml/sample) at 4° C. and then centrifuged 5 min at 350 g at 4° C. Cells were resuspended with 80 μl/sample of FACS Buffer. 20 μl of a 5× tertiary antibody solution were added. Final concentration of anti-mouse IgG-Cy5 is 4 μg/ml (1:250 diluted). The samples were incubated for 1 hour at 4° C. on tube rotator.

human TrkB immunoadhesin = target: T5, human TrkB immunoadhesin (human; Camelus dromedarius, UniProt Q16620 32-430); test: specificity ELISA, antigens coated at 2 µg/mL, scFv at 50 ug/mL (upper panel) and 5 ug/mL (lower panel), OD 450 nm
T5 construct: extracellular domain; also called hTrkB-Fc; TrkB immunoadhesins; not shown: Fc portion (immunoglobulin heavy chain constant region) of IgG2a camel antibody (Camelus dromedarius)
T5 sequence (Q16620 32-430): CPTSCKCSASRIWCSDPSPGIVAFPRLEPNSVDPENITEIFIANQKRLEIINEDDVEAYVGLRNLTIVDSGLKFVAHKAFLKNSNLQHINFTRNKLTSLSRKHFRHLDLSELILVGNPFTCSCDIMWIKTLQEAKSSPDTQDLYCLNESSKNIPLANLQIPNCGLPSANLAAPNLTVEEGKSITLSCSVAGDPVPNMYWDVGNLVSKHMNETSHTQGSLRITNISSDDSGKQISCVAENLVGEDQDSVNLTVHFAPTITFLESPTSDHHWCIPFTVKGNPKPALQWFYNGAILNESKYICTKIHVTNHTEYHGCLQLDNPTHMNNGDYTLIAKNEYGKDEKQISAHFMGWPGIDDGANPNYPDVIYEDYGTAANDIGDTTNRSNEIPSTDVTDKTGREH
Protocol: (§3) FIG. 3. Specificity ELISA of isolated anti-TrkA scFvs versus human TrkA immunoadhesin (hTrkA-Fc), human TrkB immunoadhesins (hTrkB-Fc), human TrkC immunoadhesins (hTrkC-Fc) and human p75 immunoadhesins (hp75-Fc). Human antigens were coated at 2 μg/mL. Anti-TrkA scFvs were used at 50 μg/mL (upper panel) and/or 5 μg/mL (lower panel). The mean absorbance at 450 nm of the experiments performed in duplicate wells is shown with SD indicated by the bars.

human p75 immunoadhesin = target: T2, human p75 immunoadhesin; test: as above
Protocol: as §3

human TrkC immunoadhesin = target: T6, human TrkC immunoadhesin (human; Camelus dromedarius, UniProt Q16288 32-429); test: as above
T6 construct: extracellular domain; also called hTrkC-Fc; TrkC immunoadhesins; not shown: Fc portion (immunoglobulin heavy chain constant region) of IgG2a camel antibody (Camelus dromedarius)
Protocol: as §3

Row | Binder | Kd [1] | koff [1] | kon [1] | Kd [2] | koff [2] | kon [2] | binding result [3] | binding result (human TrkB immunoadhesin) | binding result (human p75 immunoadhesin) | binding result (human TrkC immunoadhesin)
1 | anti-TrkA scFv CRB0082 (scFv, From hSPLINT_09 selection) scFv: SYVLTQPPSVSVAPGTTARLSCEATKIGSQRLHWYQQKPGQAPVMVISFDSDRPSGIPDRFSGSRSGNTATLTISGVEAGDEADYYCNSRDSSGYHLVFGGGTKLTVLSGGSTSGSGKPGSGEGSSGTQVQLQQSGPGLVKPSQTLSLTCAISGDSVSSFTVAWNWIRQSPSRGLERLGRTYRRSKDYAEYMRSRLTINADTSKNQLSLQLDSVTPDDTAVYYCARGQNSAFDLWGQRTMVTVSS | 131 nM | 0.000344 s⁻¹ | 2630 M⁻¹ s⁻¹ | 42.1 nM | 8.79e-05 s⁻¹ | 2090 M⁻¹ s⁻¹ | – | – | – | –
2 | anti-TrkA scFv CRB0022 (scFv, From mSPLINT selection) scFv: DIVLTQSPALMSASPGEKVTMTCSASSSVSYMYWYQQKPRSSPKPWIYLTSNLASGVPARFSGSGSGTSYSLTISSMEAEDAATYYCQQWSSNPYTFGGRTRLEIKPSGGSTSGSGKPGSGEDSSGAQVQLQQSGAELVKPGASVELSCTASGFNIKDTYMHWVKQRPEQGLEWIGGIDPANGNTIYVPKFQGKATITADTSSNTAYLQLSSLTSEDTAVYYCARGGYDFDYAMDYWGQGTSVTVSS | 1.16 nM | 1.09e-05 s⁻¹ | 9430 M⁻¹ s⁻¹ | 3.2 nM | 2.94e-05 s⁻¹ | 9190 M⁻¹ s⁻¹ | binds | no binding (tested: 50 ug/mL) | no binding (tested: 50 ug/mL) | no binding (tested: 50 ug/mL)
3 | anti-TrkA scFv CRB0084 (scFv, From hSPLINT_09 selection) scFv: QPVLTQPPSVSVAPRQTATITCGGNYIGSKSVHWYQQKPGQDPVLVVNDDSDRPSGIPERFSGSNSANTATLTISGVEAGDEADYYCQVWDSSTEPVVFGGGTKLTVLSGGSTSGSGKPGSGEGSSGTQVQLQQWGAGLLRPSETLSLTCTVSGGSFSDSYWTWIRQSPGKGLEWIGENNHRGSTNYSPTLRSRLSISIDSSKNQFSLKLSSVTAADTAVYYCARVPYRLRSRIFDVWGQGTMVTVSS | 2.18 nM | 2.33e-05 s⁻¹ | 10700 M⁻¹ s⁻¹ | 1700 nM | 0.0163 s⁻¹ | 9600 M⁻¹ s⁻¹ | binds | no binding (tested: 50 ug/mL) | – | no binding (tested: 50 ug/mL)
4 | anti-TrkA scFv CRB0036 (scFv, From mSPLINT selection) scFv: DIVMTQAAPSVPVTPGESVSISCRSSKSLLHSSGITSLYWYLQRPGQSPQLPIYRMSSLASGVPDRFSVSGSGTAFTLRISRVEAEDVGVYYCMQHLEYPLTFGAGTKLELKRSGGSTSGSGKPGSGEGSSGTQVQLQQSGAELLKPGASVKISCKATGYTFSNYWIEWVKQRPGHGLEWIGEILPGSGSAHYSEKFKDKATFTADTSSNTAYMQLSSLTSEDSAVYFCTRSPPNPGYWGQGTSVTVSS | 1.1 nM | 7.07e-06 s⁻¹ | 6440 M⁻¹ s⁻¹ | 13.7 nM | 3.75e-05 s⁻¹ | 2730 M⁻¹ s⁻¹ | binds | – | no binding (tested: 50 ug/mL) | –
5 | anti-TrkA scFv CRB0069 (scFv, From hSPLINT_09 selection) scFv: QPGLTQPPSASGTPGQRVTISCTGSSSNVGAGYTVHWYQQLPGTAPTLLIYDNNNRPSGVPDRFSGSRSGTSASLAITGLRAEDEADYYCQSYDRSRVYVFGTGTKLTVLSGGSTSGSGKPGSGEGSSGTQVQLQQSGPGLVKPSQTLSLTCAISGDSVSSNSAAWNWIRQSPSRGLERLGRTYYRSKWYNDYAESVKSRIIINSGTSKNQFSLHLNSVTPEDTAVYYCGRAKDGWYDAFDIWGQGTTVTVSS | 1.67 nM | 1.02e-05 s⁻¹ | 6120 M⁻¹ s⁻¹ | 5.7 nM | 3.57e-05 s⁻¹ | 6270 M⁻¹ s⁻¹ | binds | – | – | –
6 | anti-TrkA scFv CRB0089 (scFv, From hSPLINT_09 selection) scFv: QTVVTQEPSVSGAPGQRVTISCTGSSSIIGAGYEVHWYQHLPGTAPKLLIYDSINRPSGVPDRFSGSKSGTSASLAITGLQAEDEADYYCQSSAIFGGGTKLTVLSGGSTSGSGKPGSGEGSSGTQVQLQESGPGLVKPSQTLSLTCAISGDSVSSNSAAWNWIRQSPSRGLEWLGRTFHRSRWYNEYPVSVRSRITINPDTSNNQFTLQLNSVTPDDTAVYYCARAPVAGLTFDIWGQGTMVTVSS | 14.2 nM | 3.19e-05 s⁻¹ | 2250 M⁻¹ s⁻¹ | 16.9 nM | 7.76e-05 s⁻¹ | 4600 M⁻¹ s⁻¹ | binds | – | no binding (tested: 50 ug/mL) | no binding (tested: 50 ug/mL)
